Holding throughout (conditions): remark: other sources report otherwise
In assay [1] the target is T1, recombinant homotrimeric HA, A/Japan/305/57 H2N2 (Influenza A virus A/Japan/305/57 (H2N2)). As to the kind of experiment: trimeric HA microarray, transfection set 2.
In assay [2] the target is T2, recombinant homotrimeric HA, A/Hong Kong/1073/99 H9N2 (Influenza A virus A/Hong Kong/1073/99 (H9N2)). In words: trimeric HA microarray, transfection set 2.
In assay [3] the target is T3, recombinant homotrimeric HA, A/Solomon Islands/3/06 H1N1 (Influenza A virus A/Solomon Islands/3/06 (H1N1)). In words: trimeric HA microarray, transfection set 2.
Assay [4] concerns the target T4, recombinant homotrimeric HA, A/Egypt/3300-NAMRU3/08 H5N1 (Influenza A virus A/Egypt/3300-NAMRU3/08 (H5N1)). In words: trimeric HA microarray, transfection set 2.
The target in assay [5] is T5, recombinant homotrimeric HA, A/South Carolina/1/18 H1N1 (Influenza A virus A/South Carolina/1/18 (H1N1)). As to the kind of experiment: trimeric HA microarray, transfection set 2.
The target in assay [6] is recombinant homotrimeric HA, A/northern shoveler/California/HKWF115/07 (Influenza A virus A/northern shoveler/California/HKWF115/2007 (H6N1)). In words: trimeric HA microarray, transfection set 2.
Assay [7] has as its target T6, recombinant homotrimeric HA, A/common magpie/Hong Kong/5052/07 H5N1 (Influenza A virus A/common magpie/Hong Kong/5052/07 (H5N1)). As to the kind of experiment: trimeric HA microarray, transfection set 2.
Assay [8] addresses T7, recombinant homotrimeric HA, A/Wisconsin/67/05 H3N2 (Influenza A virus A/Wisconsin/67/05 (H3N2)). As to the kind of experiment: trimeric HA microarray, transfection set 2.
Assay [9] concerns the target T8, recombinant homotrimeric HA, A/swine/Ontario/01911-2/99 H4N6 (Influenza A virus A/swine/Ontario/01911-2/99 (H4N6)). In words: trimeric HA microarray, transfection set 2.
Assay [10] deals with T9, recombinant homotrimeric HA, A/Vietnam/1203/04 H5N1 (Influenza A virus A/Vietnam/1203/04 (H5N1)). In words: trimeric HA microarray, transfection set 2.
The target in assay [11] is T10, recombinant homotrimeric HA, A/California/4/09 H1N1 (Influenza A virus A/California/4/09 (H1N1)). As to the kind of experiment: trimeric HA microarray, transfection set 2.
The target of assay [12] is T11, recombinant homotrimeric HA, A/chicken/Vietnam/NCVD-016/08 H5N1 (Influenza A virus A/chicken/Vietnam/NCVD-016/08 (H5N1)). As to the kind of experiment: trimeric HA microarray, transfection set 2.
The target in assay [13] is recombinant soluble homotrimeric HA of A/Wisconsin/67/05 (H3N2) (Influenza A virus A/Wisconsin/67/05 (H3N2)). In words: microarray, BCC supernatant IgG, trimeric HA.
Assay [14] concerns the target T1, recombinant homotrimeric HA, …. As to the kind of experiment: trimeric HA microarray, transfection set 5.
Assay [15] concerns the target T3, recombinant homotrimeric HA, A/Solomon …. As to the kind of experiment: trimeric HA microarray, transfection set 5.
Assay [16] deals with T5, recombinant homotrimeric HA, A/South …. As to the kind of experiment: trimeric HA microarray, transfection set 5.
Assay [17] has as its target T7, recombinant homotrimeric HA, …. As to the kind of experiment: trimeric HA microarray, transfection set 5.
For assay [18], the target named is recombinant homotrimeric HA, A/Indonesia/5/05 H5N1 (Influenza A virus A/Indonesia/5/05 (H5N1)). As to the kind of experiment: trimeric HA microarray, transfection set 5.
The target of assay [19] is T8, recombinant homotrimeric HA, …. As to the kind of experiment: trimeric HA microarray, transfection set 5.
The target of assay [20] is T10, recombinant homotrimeric HA, …. In words: trimeric HA microarray, transfection set 5.
For assay [21], the target named is recombinant soluble homotrimeric HA of A/swine/Ontario/01911-2/99 (H4N6) (Influenza A virus A/swine/Ontario/01911-2/99 (H4N6)). In words: microarray, BCC supernatant IgG, trimeric HA.
Assay [22] concerns the target T1, recombinant homotrimeric HA, …. As to the kind of experiment: trimeric HA microarray, transfection set 3.
In assay [23] the target is T4, recombinant homotrimeric HA, …. As to the kind of experiment: trimeric HA microarray, transfection set 3.
For assay [24], the target named is recombinant homotrimeric HA, A/duck/Yangzhou/02/05 H8N4 (Influenza A virus A/duck/Yangzhou/02/2005 (H8N4)). As to the kind of experiment: trimeric HA microarray, transfection set 3.
Assay [25] deals with T6, recombinant homotrimeric HA, A/common …. In words: trimeric HA microarray, transfection set 3.
The target of assay [26] is T7, recombinant homotrimeric HA, …. In words: trimeric HA microarray, transfection set 3.
Assay [27] concerns the target T8, recombinant homotrimeric HA, …. As to the kind of experiment: trimeric HA microarray, transfection set 3.
Assay [28] has as its target T9, recombinant homotrimeric HA, …. As to the kind of experiment: trimeric HA microarray, transfection set 3.
Assay [29] concerns the target recombinant soluble homotrimeric HA of A/chicken/Vietnam/NCVD-016/08 (H5N1) (Influenza A virus A/chicken/Vietnam/NCVD-016/08 (H5N1)). In words: microarray, BCC supernatant IgG, trimeric HA.
For assay [30], the target named is recombinant soluble homotrimeric HA of A/California/4/09 (H1N1) (Influenza A virus A/California/4/09 (H1N1)). In words: microarray, BCC supernatant IgG, trimeric HA.
Assay [31] has as its target recombinant soluble homotrimeric HA of A/Japan/305/57 (H2N2) (Influenza A virus A/Japan/305/57 (H2N2)). As to the kind of experiment: microarray, BCC supernatant IgG, trimeric HA.
Assay [32] concerns the target T2, recombinant homotrimeric HA, A/Hong …. In words: trimeric HA microarray, transfection set 3.
Assay [33] deals with T3, recombinant homotrimeric HA, A/Solomon …. As to the kind of experiment: trimeric HA microarray, transfection set 3.
The target of assay [34] is T5, recombinant homotrimeric HA, A/South …. As to the kind of experiment: trimeric HA microarray, transfection set 3.
The target of assay [35] is T11, recombinant homotrimeric HA, …. As to the kind of experiment: trimeric HA microarray, transfection set 3.
For assay [36], the target named is recombinant soluble homotrimeric HA of A/duck/Yangzhou/02/05 (H8N4) (Influenza A virus A/duck/Yangzhou/02/2005 (H8N4)). In words: microarray, BCC supernatant IgG, trimeric HA.
The target of assay [37] is recombinant soluble homotrimeric HA of A/Solomon Islands/3/06 (H1N1) (Influenza A virus A/Solomon Islands/3/06 (H1N1)). As to the kind of experiment: microarray, BCC supernatant IgG, trimeric HA.

B1: TCN-522 (3212_I12) (antibody, V domains shown)
VH: QVQLQQWGAGLLKPSETLSLTCTVSGGSLTDYSWNWIRQPPGKGLEWIGDTLHNGYTNYNPSLRGRVSISIDTSKNQVSLRLTSVTAADTALYYCARGSGGYGGFDYFGKLRTWDFWGQGTLVTVSS
VL: DIQLTQSPSSLSASVGDRVTITCRASQGIRNDLGWYQQKPGNAPKRLIFGASSLQSGVPSRFSGSGSGTEFTLTISSLQPEDFATYYCLQHNSYPYTFGQGTKLEIK
In the case of B1, the Trimeric HA Binding RLU in assay [1] is 11900 RLU; in [2], 11800 RLU; in [3], 17300 RLU; in [4] it was 55400 RLU; in [5] it was 39600 RLU; in assay [6], 54400 RLU. For the same molecule, the Trimeric HA Binding RLU was determined as 21400 RLU in assay [7]; 3350 RLU in assay [8]; 1050 RLU in assay [9]; 48200 RLU in assay [10]; 37500 RLU in assay [11]; 49300 RLU in [12]. Also, in assay [13], the Trimeric HA Binding: RLU stood at 302 RLU.

B2: TCN-555 (5246_L16) (antibody, V domains shown)
VH: QVQLVQSGAEVKRPGSSVKVSCTASGGIFRKNAISWVRQAPGQGLEWMGGIIAVFNTANYAQKFQNRVKITADESGNTAYMELSSLTSDDTAVYYCASHPKYFYGSGSYPDFWGQGTLVTVSS
VL: QSALTQPRSVSGSPGQSITISCTGGSSDIGASNSVSWYQQHPGKAPKLVIFDVTERPSGVPHRFSGSKSGNTASLTVSGLQPDDEADYFCCAYGGKYLVVFGGGTKVTVL
In the case of B2, the Trimeric HA Binding RLU in assay [14] amounted to 16700 RLU; in assay [15], 44600 RLU; in [16] it was 48000 RLU; in [17], 14700 RLU; in assay [18], 33900 RLU; in assay [19], 4520 RLU. Also, in assay [20], the Trimeric HA Binding RLU was 20200 RLU. The Trimeric HA Binding: RLU in assay [21] is 1950 RLU.

B3: TCN-531 (5091_H13) (antibody, V domains shown)
VH: EVQLVESGGDLVQPGRSLKLSCTGSGFTFGDYGVTWVRQAPGKGLEWVGFIRTRPWGGTADTAASVKGRFTISRDDSKSLAYLQMNSLKTEDTAVYYCCRDAPPNVEVASMTNWYFDLWGRGTLVTVSS
VL: DIQLTQSPSSLSASVGDRVTITCRASQGILNCLAWYQQKPGKVPNLLMYAASTLQSGVPSRFSGSGFGTDFTLTISSLQPEDVATYYCQTYGGVSTFGGGTKVEIR
As for B3, the Trimeric HA Binding RLU in assay [22] amounted to 489 RLU; in [23], 363 RLU; in assay [24], 3220 RLU; in assay [25] it was 37 RLU; in assay [26], 4160 RLU; in assay [27], 296 RLU. Besides, in [28], the Trimeric HA Binding RLU came to 2410 RLU. The Trimeric HA Binding: RLU was 20800 RLU in assay [29], 22200 RLU in assay [30] and 410 RLU in assay [31].

B4: TCN-529 (5297_H01) (antibody, V domains shown)
VH: QITLRESGPTLVKPTQTLTLTCTFSGFSLSTNGVNVGWIRQPPGKALEWLALIYWDDDKRYSPSLKRRLTITKDTSKNQVVLTLTNMDPVDTATYYCAHRPDFYGDFEYWGPGTLVTVSS
VL: QSALTQPASVSGSPGQSITISCTGSSSDIGGYNYVSWYQQHPGKAPKLMIYDVNNRPSGVSNRFSGSKSGNTASLTISGLQTDDEADYYCGSYTGSPHYVFGTGTKVTVL
In the case of B4, the Trimeric HA Binding RLU in [22] came out at 45 RLU; in assay [32] it was 46 RLU; in assay [33] it was 43 RLU; in assay [24], 48 RLU; in assay [34], 158 RLU; in assay [26], 2940 RLU. Besides, the Trimeric HA Binding RLU in assay [27] came to 45 RLU; in assay [35] it was 33 RLU. For the same molecule, the Trimeric HA Binding: RLU is 771 RLU in assay [36] and 179 RLU in [37].

The record behind these values is patent US20120207760A1.
